Experiment [1] has as its target acetylcholine receptor. Briefly: SPR, AchR immobilized on CM5 chip, peptide at 10 µM. In general terms: In SPR one partner is held on a chip, and binding of the other changes the refractive index at the surface.
In experiment [2] the target is acetylcholine receptor. Kind of experiment: SPR, receptor immobilised on chip, peptide at 10 uM.

Turning to KGYYK [5mer-447], in experiment [1], the Binding affinity (RU) was found to be 76 RU. RGFTK [5mer-443] had a Binding affinity (RU) in experiment [1] of 80 RU. In experiment [2], RYCFKR [6mer-2-931] gave a Binding affinity (RU) of 29 RU. Same read-out and setting: as for RAPIRR [6mer-2-912], the figure is 27 RU. Still for that read-out and setting: as for KKMVKR [6mer-2-899], the figure is 13 RU; as for RTMNRR [6mer-2-907], 25 RU. RLFTR [5mer-445] gave a Binding affinity (RU) in experiment [1] of 77 RU. In the case of KKCARR [6mer-2-939], the Binding affinity (RU) in experiment [2] was 22 RU. Regarding KPDVRK [6mer-2-902], in experiment [2], the Binding affinity (RU) stood at 26 RU. RASVKR [6mer-2-925] came in with a Binding affinity (RU) in experiment [2] of 23 RU. For the molecule KNHMRK [6mer-2-929], the Binding affinity (RU) in experiment [2] came out at 26 RU. The same measure, in the same setting: as for KTTEKR [6mer-2-916], the figure is 22 RU; as for KDNVRR [6mer-2-922], 41 RU. With RFSAKK [6mer-2-900], in experiment [2], the Binding affinity (RU) worked out at 11 RU. On the same count and under the same terms, as for RYWDRK [6mer-2-901], the figure is 34 RU. On to KGVSK [5mer-137], for which the Binding affinity (RU) in experiment [1] was 77 RU.

Regarding RIEHKR [6mer-2-938], the Binding affinity (RU) in experiment [2] is 40 RU. As to KPPAKK [6mer-2-936], in experiment [2], the Binding affinity (RU) came to 21 RU. Molecule RRIYK [5mer-136] had a Binding affinity (RU) in experiment [1] of 75 RU. RRYQK [5mer-147] showed a Binding affinity (RU) in experiment [1] of 66 RU. The same measure, in the same setting: the same measure for RVRSR [5mer-438]: 76 RU. In turn, KYKKKR [6mer-2-908] showed a Binding affinity (RU) in experiment [2] of 33 RU. Still for that read-out and setting: the same measure for RPKAKK [6mer-2-921]: 22 RU. The same measure, in the same setting: as for RTWIKR [6mer-2-930], the figure is 37 RU; as for KAKHKR [6mer-2-919], 27 RU; as for KDDIKK [6mer-2-914], 25 RU. Same read-out and setting: the same measure for RFCWRK [6mer-2-917]: 23 RU. Molecule KLRQR [5mer-435] came in with a Binding affinity (RU) in experiment [1] of 69 RU.

Regarding KRFSK [5mer-144], in experiment [1], the Binding affinity (RU) turned out to be 58 RU.

For RASHRR [6mer-2-937], the Binding affinity (RU) in experiment [2] stood at 35 RU.

For KLIRK [5mer-441], the Binding affinity (RU) in experiment [1] came to 53 RU. Still for that read-out and setting: the same measure for RSFSK [5mer-145]: 62 RU. Consider RCNPRR [6mer-2-909], for which, in experiment [2], the Binding affinity (RU) was 42 RU. The same measure, in the same setting: the same measure for RFDHKK [6mer-2-924]: 28 RU; for RFNPRK [6mer-2-927]: 39 RU; for KFCIRR [6mer-2-928]: 28 RU. As to KVRLR [5mer-442], the Binding affinity (RU) in experiment [1] came out at 61 RU.

With RQVTK [5mer-440], the Binding affinity (RU) in experiment [1] was found to be 57 RU. Still for that read-out and setting: the same measure for KGQQR [5mer-143]: 64 RU. In turn, RVRLR [5mer-437] gave a Binding affinity (RU) in experiment [1] of 50 RU.

RCCAKK [6mer-2-923] showed a Binding affinity (RU) in experiment [2] of 33 RU.

As to KKNPKK [6mer-2-903], in experiment [2], the Binding affinity (RU) is 40 RU. Molecule RQIRK [5mer-448] yielded a Binding affinity (RU) in experiment [1] of 74 RU. The same measure, in the same setting: the same measure for KQQYR [5mer-444]: 65 RU. Take RYSMKR [6mer-2-933]: in experiment [2], the Binding affinity (RU) is 34 RU. Molecule KWRLR [5mer-140] came in with a Binding affinity (RU) in experiment [1] of 69 RU. On the same count and under the same terms, as for RWQQR [5mer-141], the figure is 50 RU. As for RIPWRR [6mer-2-932], in experiment [2], the Binding affinity (RU) was 35 RU. RPKERR [6mer-2-905]: the Binding affinity (RU) in experiment [2] was 26 RU. Consider KNWMRK [6mer-2-918], for which, in experiment [2], the Binding affinity (RU) was 35 RU. In experiment [1], RQYSR [5mer-142] came in with a Binding affinity (RU) of 52 RU. Consider RMTIKK [6mer-2-920], for which the Binding affinity (RU) in experiment [2] was found to be 26 RU. Same read-out and setting: as for KMSGKR [6mer-2-911], the figure is 21 RU; as for KYKDRR [6mer-2-934], 26 RU.

In turn, RLQYK [5mer-139] registered a Binding affinity (RU) in experiment [1] of 73 RU. In experiment [1], RQRCR [5mer-138] yielded a Binding affinity (RU) of 71 RU.

KNCWKR [6mer-2-915]: in experiment [2], the Binding affinity (RU) was 29 RU. The same measure, in the same setting: the same measure for KYCDKK [6mer-2-906]: 40 RU; for KKCNKK [6mer-2-935]: 22 RU; for RPTVKR [6mer-2-926]: 31 RU. RWFTK [5mer-146] yielded a Binding affinity (RU) in experiment [1] of 52 RU. Same read-out and setting: as for RSQTK [5mer-148], the figure is 50 RU; as for KRVTR [5mer-439], 65 RU. The molecule RHEHRR [6mer-2-910] returned a Binding affinity (RU) in experiment [2] of 21 RU. Same read-out and setting: as for RNENKK [6mer-2-940], the figure is 41 RU.

Take RDEDKR [6mer-2-941]: in experiment [2], the Binding affinity (RU) was 33 RU. As for KFKNRR [6mer-2-913], in experiment [2], the Binding affinity (RU) stood at 25 RU. In experiment [1], RRLLR [5mer-135] gave a Binding affinity (RU) of 64 RU.

KCCFKK [6mer-2-904]: the Binding affinity (RU) in experiment [2] was found to be 30 RU. Molecule RGLQK [5mer-446] gave a Binding affinity (RU) in experiment [1] of 53 RU. Same read-out and setting: as for RVFYK [5mer-436], the figure is 60 RU.

Source of the values: patent US20250011363A1, “OPTIMIZED SHORTENED PEPTIDE THAT BINDS TO ACETYLCHOLINE RECEPTOR, AND USE THEREOF” (SKINMED CO., LTD., priority 2021, published 2025).
